Experimental data as given in patent US6723697B2, “IL-16 antagonists” (Research Corporation Technologies, Inc., priority 1999, dated 2004).

Tests used:
anti-CD4 antibody (OKT4) = test: OKT4-induced migration of T-cells; assay type: cell-based; conditions: OKT4 1 μg/ml, co-incubation
HIV-1 gp120 [1] = target: T1, HIV-1 gp120 (Human immunodeficiency virus type 1 group M subtype B, UniProt P04578); conditions: gp120 5 μg/ml, co-incubation
IL-16 = target: T2, IL-16 (Mus musculus, UniProt O54824); test: IL-16-induced migration of human T-cells; assay type: cell-based; conditions: co-incubation of IL-16 and peptide
T2 construct: polyhistidine fusion protein containing the 119 C-terminal residues encoded by the previously reported murine cDNA; polyhistidine (cleaved yes); made in house
T2 sequence (O54824 1204-1322): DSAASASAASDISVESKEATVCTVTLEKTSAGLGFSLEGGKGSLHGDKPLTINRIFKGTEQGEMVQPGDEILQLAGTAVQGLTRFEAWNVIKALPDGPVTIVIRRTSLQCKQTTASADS

murine rIL-16 [2] = target: T3, murine rIL-16 (Mus musculus, UniProt O54824); test: murine rIL-16-stimulated murine splenocyte migration, modified Boyden chamber; assay type: cell-based; conditions: rIL-16 10^-9 M
T3 construct: polyhistidine fusion protein containing the 119 C-terminal residues encoded by the previously reported murine cDNA; polyhistidine (cleaved yes); made in house; host or cells: Escherichia coli strain HMS 174, vector pET16b
T3 sequence (O54824 1204-1322): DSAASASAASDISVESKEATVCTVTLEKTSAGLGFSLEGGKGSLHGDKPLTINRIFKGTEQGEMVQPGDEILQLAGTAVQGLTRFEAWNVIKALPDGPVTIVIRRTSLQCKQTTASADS
Method: (§1) Cell migration was assessed using a modified Boyden chamber. […] Cell migration is expressed as the mean % control migration.
(§2) Results from multiple experiments were analyzed using Student's t test for paired variables, and Tukey's test for multiple variables. A P value<0.05 was considered significant.
Peptide B (aa 341-352) includes the sequence WQCLLS (residues 344-349, SEQ ID NO:4) which is 100% conserved in all the species examined. Peptide A (aa 327-338) and peptide C (aa 351-362) correspond to the N-terminal and C-terminal flanks of peptide B, respectively. A random scrambled 12-residue peptide (LSKQKMVSREGT) designated peptide D (SEQ ID NO:20) was used a negative control for nonspecific effects of peptide administration on splenocyte motility. Criteria for the design of peptide D included overall hydrophilicity, neutral charge and no cysteine residues (to prevent possible dimer formation).
Murine spleens were harvested from healthy 8-week male BALB/c mice (Jackson Laboratory). Splenocytes were isolated by grinding spleens between fiysted slides in M199 culture medium (M. A. Bioproducts), supplemented with 0.4% bovine serum albumin, 22 mM HEPES buffer, 100 with U/ml of penicillin, 100 μg/ml streptomycin (M199-HPS). Cells were washed and erytbrocytes were lysed in Gey's solution. Splenocytes were washed twice in M199, and resuspended to a final concentration of 2×10^6 cells/ml in RPMI1640 medium (BioWhittaker) supplemented with 10% FBS, 100 U/ml of penicillin and 100 μg/ml of streptomycin. By flow cytometry, 25% of the isolated splenocytes within the lymphocyte-cloud were CD4^+.
Recombinant murine IL-16 was produced in Escherichia coli (strain HMS 174; Novagen) as a polyhistidine fusion protein containing the 119 C-terminal residues encoded by the previously reported murine cDNA (Keane et al., (1998) J. Immunol. 160: 5945-5954), using the bacterial expression vector pET16b (Novagen). The recombinant product corresponds to the secreted form of natural murine IL-16 following cleavage by caspase-3 (Zhang et al. (1998) J. Biol. Chem. 273:1144-1149). The rIL-16 was purified by metal chelation chromatography, and the polyhistidine tag was cleaved with factor Xa (New England Biolabs).

[3] = target: T4, rIL-16 / GST-murine D3D4 fusion protein (Mus musculus, UniProt O54824); test: in vitro binding of 35S-labeled murine rIL-16 to GST-murine D3D4 fusion protein; conditions: each peptide 10^-5 M, 10 ug/ml
T4 construct: murine IL-16 cDNA construct in pET-16b expressing the C-terminal 119 amino acids of IL-16; polyhistidine (pET-16b vector); made in house; host or cells: IL-16: coupled in vitro transcription-translation (TNT T7, Promega); GST-D3D4: E. coli, vector pGEX-5X.1
T4 sequence (O54824 1205-1322 limits assumed): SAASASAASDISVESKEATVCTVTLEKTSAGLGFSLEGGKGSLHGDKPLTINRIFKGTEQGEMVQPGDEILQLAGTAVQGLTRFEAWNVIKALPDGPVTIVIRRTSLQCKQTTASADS
Method: Complexes were isolated by centrifugation, then bound rIL-16 was released by boiling in SDS-PAGE buffer, resolved by SDS-PAGE, and detected by autoradiography. Specificity of the interaction between rIL-16 and D3D4 was assessed by competition with an excess of unlabeled rIL-16. ^35S-labeled rIL-16 incubated with GST (lane 1); ^35S-labeled rIL-16 incubated with GST-D3D4 (lane 2); ^35S-labeled rIL-16 plus excess unlabelled rIL-16 incubated with GST-D3D4 (lane 3); ^35S-labeled rIL-16 plus10 ug/ml peptide A (lane 4); ^35S-labeled rIL-16 plus 10 ug/ml peptide B (lane 5); ^35S-labeled rIL-16 plus 10 ug/ml peptide C (lane 6); ); ^35S-labeled rIL-16 plus 10 ug/ml peptide A and peptide B (lane 7). The arrow indicates the position of IL-16 on the gel. The identity of this band was re-confirmed by immunoblotting with anti-IL-16 antibody.
Radiolabeled murine IL-16 was prepared by in vitro translation and transcription (TNT T7, Promega) of a murine IL-16 cDNA construct in pET-16b expressing the C-terminal 119 amino acids of IL-16. Each coupled transcription-translation reaction was conducted in medium supplemented with [^35S]methionine according to the manufacturer's instructions.
A glutathione-S-transferase (GST)-murine D3D4 fusion protein was produced by subcloning the murine D3D4 domain cDNA sequences encoding the CD4 protein open reading frame from Phe^182 to Phe^372 into pGEX-5X.1 (Pharmacia). The GST-D3D4 fusion protein was purified according to the Pharmacia GST-fusion protein purification protocol using glutathione-conjugated Sepharose 4B beads in the presence of 2 mM dTT. […]
To investigate IL-16 interaction with the D3D4 of CD4, the GST-D3D4 fusion protein, or GST alone, was bound to the glutathione-conjugated Sepharose 4B beads. […] The GST-D3D4 or GST proteins were released from the beads by boiling in SDS gel loading buffer, and the supernatant was analyzed by 12% SDS-polyacrylamide gel electrophoresis (SDS-PAGE). The presence of ^35S-labeled mrIL16 was detected by autoradiography of the dried gel. […]

rIL-16 = target: T5, rIL-16 (Mus musculus, UniProt O54824); test: IL-2R (CD25) induction on rIL-16-stimulated murine splenocytes, flow cytometry; assay type: cell-based; conditions: for % IL-2R+ CELLS: IL-16 + peptide, concentration not given (10^-6 M or 10^-7 M)
T5 construct: polyhistidine fusion protein containing the 119 C-terminal residues encoded by the previously reported murine cDNA; polyhistidine (cleaved yes); made in house; host or cells: Escherichia coli strain HMS 174, vector pET16b
T5 sequence (O54824 1204-1322): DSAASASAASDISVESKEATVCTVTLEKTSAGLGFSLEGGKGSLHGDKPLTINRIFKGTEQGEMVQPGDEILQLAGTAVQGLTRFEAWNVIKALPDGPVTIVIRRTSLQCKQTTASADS
Method: Induction of IL-2R (CD25) on rIL-16-stimulated murine splenocytes was detected by staining with FITC-conjugated anti-mouse IL-2R Ab (PharMingen). Cells were fixed with 10% formalin and stored at 4° C. in the dark before analysis with a Becton Dickinson FACScan 440 flow cytometer. The % IL-2R^+ cells was determined by subtracting the % isotype control positive from the total % positive events.
Peptides A (SEQ ID NO:15) and C (SEQ ID NO:19) were inhibitory at 10^−7 M, but not 10^−6 M. The negative control peptide D (SEQ ID NO:20) (10^−6 M) had no effect on rIL-16-stimulated IL-2R expression.
Murine splenocytes were incubated in control buffer, rIL-16 alone, or rIL-16 plus the indicated peptide. IL-2R expression was determined by flow cytometry using FITC-conjugated anti-IL-2R antibody. The % IL-2R^+ was determined by subtracting the FITC-conjugated isotype control antibody binding from the FITC-conjugated anti-IL-2R antibody binding. Isotype control antibody binding ranged from 1% to 4%.

murine rIL-16 [4] = target: T3, murine rIL-16; test: IL-16-stimulated T-lymphocyte migration, human CD4 D4 point mutants; assay type: cell-based; conditions: human CD4 D4 wild type or point mutant, rIL-16 10^-9 M
Method: Point mutations at Leu 348 and Leu 349 in human CD4 were prepared as follows.
Initially 100 ng of wild type human CD4 cDNA (Richard Axel, Columbia University, N.Y.) contained within the mammalian expression vector pcDNA3.1(−) (Invitrogen, Carlsbad, Calif.) was subjected to the polymerase chain reaction (PCR) in the presence of 125 ng of each set of primer pairs. PCR conditions were as follows:
The time for the elongation step varied according to the relationship of 2 minutes per kilobase of plasmid DNA length. The product was then subjected to restriction digestion with the enzyme Dpn for 1 h. at 37° C. Dpn is specific for methylated nucleotides and therefore will only cut the original wide type CD4-plasmid DNA. The transformation reaction required the addition of 1 μl of the digest to 50 μl of Epicurean Blue Eschericia coli which was incubated on ice for 30 min. and finally heat shocked 42° C., 45 sec to seal the supercompent bacteria. The resultant bacteria culture was selected on ampicillin plates and sequenced to confirm mutagenesis.
as §1, §2
(FIGS. 10A and 10B). […] (FIGS. 11A and 11B).

HIV-1 gp120 [5] = target: T1, HIV-1 gp120; conditions: human CD4 point mutant
Method: Cell migration was assessed using a modified Boyden chamber. (Center, et al., (1982) J. Immunol. 128:2563-2568; Cruikshank, et al., (1982) J. Immunol. 128:2569-2574). […] For blocking experiments, 10^−9 M murine rIL-16 with various concentrations of oligopeptides were mixed and placed in the lower well. The upper and lower wells were separated by 8 μm pore size nitrocellulose filter membrane (Neuro Probe). Following incubation (3 h, 37° C.), the membranes were removed, stained with hematoxylin, and dehydrated. Cell migration was quantified by counting the number of cells migrating beyond a depth of 40 μm. Counts were compared with control cells exposed to M199-HPS alone, which was normalized to 100%. Cell migration is expressed as the mean % control migration. All samples were tested in duplicate, with five high power fields counted in each duplicate.

Molecule: CLLS (OTHER INFORMATION: Description of Artificial Sequence:IL-16 antagonist peptide) [aa 347-350 of human CD4 D4]
- effect on anti-CD4 antibody OKT4-induced migration (anti-CD4 antibody (OKT4)): unaffected
- effect on HIV-1 gp120-induced migration (HIV-1 gp120 [1]): unaffected
- IL-16-induced migration of human T-cells blocked (IL-16): approximately 90%

Molecule: GDKVKMDSRIQV [peptide C, 12-residue peptide, aa 351-362 of mouse CD4 D4]
- inhibition of rIL-16-induced splenocyte migration (murine rIL-16 [2]; peptide 10^-6 M): inhibit
- IL-16-inhibitory activity (block of murine rIL-16-stimulated murine splenocyte migration) (murine rIL-16 [2]; peptide concentration not given): IL-16-inhibitory activity
- IL-16 binding to GST-D3D4 in the presence of peptide [3]: failed to reduce IL-16 binding
- % IL-2R+ CELLS (rIL-16; first line of the peptide's pair): 20%
- % IL-2R+ CELLS (rIL-16; second line of the peptide's pair): 35%
- inhibition of IL-16-stimulated induction of IL-2R (rIL-16; peptide 10^-7 M): inhibitory

B1: NLTCEVWGPTSPKLMLSLKLENKEAKVSKREKAVWVLNPEAGMWNCLLSDSGQVLLESNIKVLPTWSTPVQPM (peptide)
chain: NLTCEVWGPTSPKLMLSLKLENKEAKVSKREKAVWVLNPEAGMWNCLLSDSGQVLLESNIKVLPTWSTPVQPM
modifications: OTHER INFORMATION: Description of Artificial Sequence:IL-16 antagonist peptide
notes: human CD4 D4 with glutamine 346 to asparagine
- inhibition of IL-16-stimulated T-lymphocyte migration (murine rIL-16 [4]): IL-16-inhibitory activity
- inhibition of IL-16-stimulated T-lymphocyte migration (murine rIL-16 [4]; listed as human CD4 (Q346→N)): no loss in inhibition
- inhibition of HIV-1 gp120-stimulated T-lymphocytes (HIV-1 gp120 [5]): no loss in inhibition
